For one data set, the system named is wild type yeast cells. Type of data set: cell-based.
Another data set deals with MazF (Escherichia coli, UniProt P0A850+P0AE70).
Data set [1] concerns the target T1, YafQ with His6 tag at the carboxy terminus (E. coli K12, UniProt Q47149 1-92).
T1 construct: not shown: C-terminal His6 tag from the pET vector
T1 sequence (looked up): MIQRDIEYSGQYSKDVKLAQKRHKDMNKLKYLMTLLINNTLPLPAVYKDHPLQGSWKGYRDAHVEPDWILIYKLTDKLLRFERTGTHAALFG
Briefly: affinity chromatography, co-purification via His6-tagged YafQ.

Data set [2] concerns cellular mRNAs (ompA, tufA, ompF) and polysomes. The experiment in a line: Northern blot and polysome pattern after Doc induction (pBAD, arabinose).
Description: Northern blot analysis after Doc induction. The doe gene was induced with use of a pBAD vector by the addition of arabinose. At the times after induction indicated on top of the gels, total cellular RNAs were extracted and analyzed by Northern blot for ompA, tufA and ompF mRNAs.
Polysome patterns of cells without (left panels) or with Doc induction (right panels) using cells harboring pBADdoc. Polysome patterns were analyzed as described in FIG. 11 with and without Doc induction by the addition of arabinose. Polysome patterns were analyzed in the presence (upper panels) or in the absence of hygromycin, an antibiotic that blocks translation elongation reaction.
For data set [3], the target named is T2, RelE, His-tagged at the C-terminal end (E. coli K12, UniProt P0C077 1-95).
T2 construct: not shown: C-terminal His tag from pET21
T2 sequence (looked up): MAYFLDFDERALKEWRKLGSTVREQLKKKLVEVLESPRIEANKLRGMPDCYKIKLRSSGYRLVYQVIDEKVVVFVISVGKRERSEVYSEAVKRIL
The experiment in a line: Ni-NTA purification of the complex via the His-tagged toxin.

The target in another data set is T3, YdcE (B. subtilis, UniProt P96622 1-116).
T3 construct: also called MazF homologue from B. subtilis
T3 sequence (looked up): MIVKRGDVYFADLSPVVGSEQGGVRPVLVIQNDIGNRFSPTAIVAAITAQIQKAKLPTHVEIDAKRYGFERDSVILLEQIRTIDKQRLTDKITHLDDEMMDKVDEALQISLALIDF
Briefly: purification of the toxin-antitoxin complex.

A further data set deals with E. coli. Format: cell-based.
The subject of a further data set is lpp mRNA. Format: cell-based, E. coli.
Data set [4] relates to E. coli cells. Particulars: MazF induction (Zhang et al., 2003b); cited from earlier work.
For data set [5], the target named is T4, ChpBK, His-tagged at the C-terminal end (E. coli K12, UniProt P33647 1-116).
T4 construct: not shown: C-terminal His tag from pET21
T4 sequence (looked up): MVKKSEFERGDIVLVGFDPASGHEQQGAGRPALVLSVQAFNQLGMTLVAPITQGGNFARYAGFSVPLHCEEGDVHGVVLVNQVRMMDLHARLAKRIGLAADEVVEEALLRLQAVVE
The experiment in a line: Ni-NTA purification of the complex via the His-tagged toxin.

In data set [6] the target is T5, MazF, His-tagged at the C-terminal end (E. coli K12, UniProt P0AE70 1-111).
T5 construct: not shown: C-terminal His tag from pET21
T5 sequence (looked up): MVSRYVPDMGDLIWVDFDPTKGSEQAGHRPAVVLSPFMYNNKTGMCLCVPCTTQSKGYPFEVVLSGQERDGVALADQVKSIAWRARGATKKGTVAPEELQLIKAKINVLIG
The description is as above.

Data set [7] has as its system E. coli cells. Format: cell-based. The note with it: arabinose-inducible pBAD vector.
In data set [8] the test system is translation initiation complex. The experiment in a line: Toeprinting assay on a translation initiation complex (mazG mRNA fragment, 70S ribosomes). Type of data set: biochemical, E. coli. The note with it: only in the presence of ribosomes.
The subject of a further data set is ompA and ompF mRNAs. Format: cell-based, E. coli. The note with it: 2-h induction of YoeB with arabinose.
Data set [9] addresses T6, HipA, His-tagged at the C-terminal end (E. coli K12, UniProt P23874 1-440).
T6 construct: not shown: C-terminal His tag from pET21
T6 sequence (looked up): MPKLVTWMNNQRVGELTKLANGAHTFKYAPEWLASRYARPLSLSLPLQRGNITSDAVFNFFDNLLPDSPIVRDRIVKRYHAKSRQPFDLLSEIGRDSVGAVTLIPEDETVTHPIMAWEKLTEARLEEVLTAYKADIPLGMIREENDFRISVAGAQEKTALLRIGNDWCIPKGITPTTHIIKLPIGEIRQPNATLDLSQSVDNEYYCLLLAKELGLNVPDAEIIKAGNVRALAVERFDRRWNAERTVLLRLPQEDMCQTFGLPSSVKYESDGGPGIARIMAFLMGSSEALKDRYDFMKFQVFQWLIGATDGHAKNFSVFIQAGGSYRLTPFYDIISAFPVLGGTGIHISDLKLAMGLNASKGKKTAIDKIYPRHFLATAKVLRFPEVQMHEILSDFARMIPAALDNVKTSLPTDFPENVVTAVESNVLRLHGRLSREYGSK
Briefly: Ni-NTA purification of the complex via the His-tagged toxin.

d = 2'-deoxy (DNA); r = 2'-OH (RNA)

As for “RelE: E. coli toxin, ribosome-associating factor that stimulates ribosomal endo-ribonuclease activity”, the “toxicity / growth inhibition in yeast” value in the data set with wild type yeast cells was “prokaryote-specific growth inhibitors”. dGdAdTdArUdAdCdAdTdAdTdG [CBS-1]: the “function as substrate for MazF” value at MazF (MazF fused to trigger factor, 37° C., pilot experiment) was “suitable and sensitive substrate”. In the case of “dGdAdTdArUrArCdGdTdAdTdG (GATAUACGTATG; sugars from the 5' end d4 r3 d5, backbone not given here) [CBS-2]”, the “cleavage by MazF” value with MazF (substrate not yet synthesized) is on record as “not by MazF”.

B1: DinJ (other, E. coli K12, UniProt Q47150 1-86, looked up)
chain: MAANAFVRARIDEDLKNQAADVLAGMGLTISDLVRITLTKVAREKALPFDLREPNQLTIQSIKNSEAGIDVHKAKDADDLFDKLGI
notes: Co-expressed with YafQ from a pET vector; the His6 tag was added only to YafQ; also called DinJ antitoxin
Take B1: the binding result in data set [1] is reported as “binds”.

B2: Doc: toxin of the Doc-Phd TA operon from phage P1 (protein)
chain: MRHISPEELIALHDANISRYGGLPGMSDPGRAEAIIGRVQARVAYEEITDLFEVSATYLVATARGHIFNDANKRTALNSALLFLRRNGVQVFDSPELADLTVGAATGEISVSSVADTLRRLYGSAE
modifications: left off: small tags and cut ends
Take B2: the “degradation of cellular mRNAs” value in data set [2] (120 min after induction) is “not degraded”. Moreover, in data set [2] (after 2 h induction, without addition of hygromycin), the polysome pattern entry is “did not change”.

B3: RelB (other, E. coli K12, UniProt P0C079 1-79, looked up)
chain: MGSINLRIDDELKARSYAALEKMGVTPSEALRLMLEYIADNERLPFKQTLLSDEDAELVEIVKERLRNPKPVRVTLDEL
notes: also called RelB antitoxin
Turning to B3, the binding result in data set [3] is listed as “binds”.

B4: YdcD (other, B. subtilis, UniProt P96621 1-93, looked up)
chain: MSESSARTEMKISLPENLVAELDGVAMREKRSRNELISQAVRAYVSERTTRHNRDLMRRGYMEMAKINLNISSEAHFAECEAETTVERLVSGG
notes: also called YdcD antitoxin
B4: the binding result in the data set with YdcE is reported as “binds”.

B5: YafQ: E. coli toxin of the YafQ-DinJ TA system, sequence-specific MIase (protein)
chain: T1 sequence (looked up)
modifications: left off: small tags and cut ends
On to B5, for which, in the data set with wild type yeast cells, the “toxicity / growth inhibition in yeast” value is recorded as “growth inhibitor”. The “toxicity / growth inhibition in E. coli” value in the data set on E. coli was “growth inhibitor”.

B6: MazF: E. coli toxin, sequence-specific (ACA) endoribonuclease, mRNA interferase (protein)
chain: T5 sequence (looked up)
modifications: left off: small tags and cut ends
For B6, the “time after induction until full-length lpp mRNA disappears” value in the data set on lpp mRNA is recorded as ≤ 5 min. Besides, in the data set with E. coli cells [4], the “time after induction until cellular protein synthesis is inhibited” value was 15 to 20 min.

B7: ChpBI (other, E. coli K12, UniProt P08365 1-83, looked up)
chain: MRITIKRWGNSAGMVIPNIVMKELNLQPGQSVEAQVSNNQLILTPISRRYSLDELLAQCDMNAAELSEQDVWGKSTPAGDEIW
notes: also called ChpBI antitoxin
Consider B7, for which the binding result in data set [5] is “binds”.

B8: MazE (other, E. coli K12, UniProt P0AE72 1-82, looked up)
chain: MIHSSVKRWGNSPAVRIPATLMQALNLNIDDEVKIDLVDGKLIIEPVRKEPVFTLAELVNDITPENLHENIDWGEPKDKEVW
notes: also called MazE antitoxin
Consider B8, for which, in [6], the binding result is listed as “binds”.

B9: YoeB: E. coli toxin of the YoeB-YefM TA system, 50S ribosome associating protein (protein)
chain: MKLIWSEESWDDYLYWQETDKRIVKKINELIKDTRRTPFEGKGKPEPLKHNLSGFWSRRITEEHRLVYAVTDDSLLIAACRYHY
modifications: left off: small tags and cut ends
notes: E. coli toxin of the YoeB-YefM TA system, 50S ribosome associating protein
In the case of B9, the “toxicity / growth inhibition in yeast” value with wild type yeast cells is “not toxic”. For the same molecule, the “time after induction until cellular protein synthesis is almost completely inhibited” value in the data set on E. coli cells [7] is recorded as ≤ 5 min. For the same molecule, the “time after induction at which a substantial amount of full-length lpp mRNA is still present” value with lpp mRNA is on record as “more than 1 h”. In addition, the “shift of the toeprint band upstream of the normal toeprinting band” value in data set [8] was found to be 11 bases. In the data set with ompA and ompF mRNAs, the “position of primer extension block downstream of the initiation codon, ompA mRNA” value is 3 bases and the “position of primer extension block downstream of the initiation codon, ompF mRNA” value amounted to 6 bases.

B10: HipB (other, E. coli K12, UniProt P23873 1-88, looked up)
chain: MMSFQKIYSPTQLANAMKLVRQQNGWTQSELAKKIGIKQATISNFENNPDNTTLTTFFKILQSLELSMTLCDAKNASPESTEQQNLEW
notes: also called HipB antitoxin
Consider B10, for which the binding result in data set [9] is “binds”.

These data come from patent US20100234287A1, “Targeting Bacterial Suicide Pathways for the Development of Novel Antibiotics” (UNIVERSITY OF MEDICINE AND DENTISTRY OF NEW JERSEY, priority 2006, published 2010).
